Experimental data published in patent US8138323 (YEDA RESEARCH AND DEVELOPMENT, dated 2012).

Target: TNF (UniProt P01375 77-233)
Assay: cell-based or functional assay

Sequence of TNF (P01375 77-233 limits assumed): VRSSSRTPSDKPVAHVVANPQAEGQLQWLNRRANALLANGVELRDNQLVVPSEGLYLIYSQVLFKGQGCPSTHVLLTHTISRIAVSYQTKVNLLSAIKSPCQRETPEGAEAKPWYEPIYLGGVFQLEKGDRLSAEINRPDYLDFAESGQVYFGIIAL

B1: Tumor Necrosis Factor (TNF) Binding Protein II (receptor, human, UniProt P20333 25-213, looked up)
chain: AQVAFTPYAPEPGSTCRLREYYDQTAQMCCSKCSPGQHAKVFCTKTSDTVCDSCEDSTYTQLWNWVPECLSCGSRCSSDQVETQACTREQNRICTCRPGWYCALSKQEGCRLCAPLRKCRPGFGVARPGTETSDVVCKPCAPGTFSNTTSSTDICRPHQICNVVAIPGNASMDAVCTSTSPTRSMAPGA
In the case of B1, the “detectable cytotoxicity of rTNF in the presence of TBP-II against rTNF alone, days 2 to 9” value is reported as 10 fold.
